From article PMC8914392, “Biochemical and structural characterizations of thioredoxin reductase selenoproteins of the parasitic filarial nematodes Brugia malayi and Onchocerca volvulus” (Redox Biology, 2022)
Read-outs that look alike come from different tables or passages of the source.

Experiments:
[1] = target: thioredoxin reductase from Brugia malayi, isoform D (Brugia malayi)
OvTrxR (isoform D) [2] = tested on: T1, OvTrxR (isoform D); assay: TNB formation at A412; format: biochemical, Onchocerca volvulus; conditions: 250 μM NADPH, 10 nM enzyme, pH 7.5
T1 construct: gene TrxR; pABC2a, N-terminal His-SUMO tag removed; E. coli C321.deltaA; Sec enriched; homodimer
Source text: TNB formation at A412 on OvTrxR (isoform D)

hTrxR1 = target: T2, hTrxR1 (Homo sapiens, UniProt Q16881); assay: TNB formation at A412; format: biochemical; conditions: NADPH, pH 7.5
T2 construct: gene TXNRD1; recombinant selenoprotein, GCUG C-terminus, cytosolic form; homodimer
T2 sequence (Q16881 151-649): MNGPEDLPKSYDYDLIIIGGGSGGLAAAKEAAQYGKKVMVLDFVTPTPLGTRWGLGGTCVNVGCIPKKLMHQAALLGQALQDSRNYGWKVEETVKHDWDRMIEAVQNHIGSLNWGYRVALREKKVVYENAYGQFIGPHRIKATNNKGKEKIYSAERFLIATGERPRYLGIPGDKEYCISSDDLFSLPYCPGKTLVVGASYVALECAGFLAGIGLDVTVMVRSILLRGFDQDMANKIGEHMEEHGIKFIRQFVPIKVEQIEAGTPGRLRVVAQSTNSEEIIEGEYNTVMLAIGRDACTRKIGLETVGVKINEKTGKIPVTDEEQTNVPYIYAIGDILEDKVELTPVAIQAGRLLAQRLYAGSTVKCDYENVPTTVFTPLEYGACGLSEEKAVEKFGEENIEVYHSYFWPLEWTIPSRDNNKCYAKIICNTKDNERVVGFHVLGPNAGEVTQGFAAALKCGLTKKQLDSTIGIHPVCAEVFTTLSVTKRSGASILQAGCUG
Source text: TNB formation at A412 on hTrxR1

BmTrxR (isoform D) [3] = target: T3, BmTrxR (isoform D) (Brugia malayi, UniProt A0A1I9G0T9); assay: ThermoFAD; format: binding; conditions: 1 mM NADPH; Tm without NADPH 64.5 °C
T3 construct: gene bma-trxr-1; full-length isoform D, 598 residues, Grx-like domain 1-102 and TrxR domain 103-598, Sec at 597; pABC2a, N-terminal His-SUMO tag removed; E. coli C321.deltaA; homodimer
T3 sequence (A0A1I9G0T9 116-713): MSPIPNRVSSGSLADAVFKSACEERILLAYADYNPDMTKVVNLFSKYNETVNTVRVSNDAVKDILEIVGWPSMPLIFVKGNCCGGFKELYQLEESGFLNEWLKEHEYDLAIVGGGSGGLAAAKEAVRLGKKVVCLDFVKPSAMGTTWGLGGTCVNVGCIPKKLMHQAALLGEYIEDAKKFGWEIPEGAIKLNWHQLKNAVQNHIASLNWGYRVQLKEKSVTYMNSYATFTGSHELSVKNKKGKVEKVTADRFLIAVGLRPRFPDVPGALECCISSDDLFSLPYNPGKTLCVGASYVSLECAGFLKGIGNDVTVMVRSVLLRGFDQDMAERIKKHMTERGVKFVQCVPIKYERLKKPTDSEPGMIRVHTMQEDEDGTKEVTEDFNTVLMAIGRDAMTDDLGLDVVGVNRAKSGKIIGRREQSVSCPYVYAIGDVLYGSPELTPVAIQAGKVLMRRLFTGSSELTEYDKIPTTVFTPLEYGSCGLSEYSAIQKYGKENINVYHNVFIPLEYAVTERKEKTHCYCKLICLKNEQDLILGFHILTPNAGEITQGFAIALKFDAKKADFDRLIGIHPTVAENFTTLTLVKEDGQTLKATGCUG

OvTrxR (isoform D) [4] = tested on: T1, OvTrxR (isoform D); assay: DTNB reduction, A412, dose-response fit; format: biochemical, Onchocerca volvulus; conditions: 25 nM enzyme, 30 min preincubation with 0.25 mM NADPH and 0.1 mg/ml BSA, 1 mM DTNB, pH 7.5; for IC50: read-out: Apparent IC50 (μM) ^a
Source text: DTNB reduction, A412, dose-response fit on OvTrxR (isoform D)

BmTrxR (isoform D) [5] = target: T3, BmTrxR (isoform D); assay: DTNB reduction, A412, dose-response fit; format: biochemical; conditions: for IC50: read-out: Apparent IC50 (μM) ^a
Source text: DTNB reduction, A412, dose-response fit on BmTrxR (isoform D)

[6] = target: thioredoxin reductase from Onchocerca volvulus, isoform D (Onchocerca volvulus)
purified protein = substrate: O=C(O)c1cc(SSc2ccc([N+](=O)[O-])c(C(=O)O)c2)ccc1[N+](=O)[O-]; assay: purified protein; conditions: 250 μM NADPH, 20 nM enzyme, pH 7.5

Molecule: Brugia malayi thioredoxin 2 (natural protein)
- Km of the reductase for the Trx, Trx-linked insulin disulfide reduction assay (NADPH consumption at A340) [1]: 4.7 µM

Molecule: O=C(O)c1cc(SSc2ccc([N+](=O)[O-])c(C(=O)O)c2)ccc1[N+](=O)[O-] [DTNB, 5,5′-dithiobis-(2-nitrobenzoic acid)]
- Km (OvTrxR (isoform D) [2]): 170 ± 12 µM
- Km (hTrxR1): 61 ± 8.4 µM

Molecule: NADPH
- Tm (BmTrxR (isoform D) [3]): 48.3 ± 0.6 °C

Molecule: TRi-2
- Apparent IC50 (μM) ^a (OvTrxR (isoform D) [4]; unreliable (above the printed inhibitor range 1 nM-1 μM)): 1.5 µM
- Apparent IC50 (μM) ^a (BmTrxR (isoform D) [5]; 25 nM enzyme, 30 min preincubation with 0.25 mM NADPH and 0.1 mg/ml BSA, 1 mM DTNB, pH 7.5, unreliable (above the printed inhibitor range 1 nM-1 μM)): 1.8 µM

Molecule: Brugia malayi thioredoxin 1 (natural protein)
- Km of the reductase for the Trx, Trx-linked insulin disulfide reduction assay (NADPH consumption at A340) [1]: 2.7 µM
- Km of the reductase for the Trx, Trx-linked insulin disulfide reduction assay (NADPH consumption at A340) [6]: 2.4 µM

Molecule: auranofin
- IC50 (OvTrxR (isoform D) [4]; covalent): 0.0032 µM
- IC50 (BmTrxR (isoform D) [5]; 25 nM enzyme, 30 min preincubation with 0.25 mM NADPH and 0.1 mg/ml BSA, 1 mM DTNB, pH 7.5, covalent): 0.0024 µM

Molecule: Onchocerca volvulus thioredoxin 2 (natural protein)
- Km of the reductase for the Trx, Trx-linked insulin disulfide reduction assay (NADPH consumption at A340) [1]: 9.6 µM
- Km of the reductase for the Trx, Trx-linked insulin disulfide reduction assay (NADPH consumption at A340) [6]: 4.5 µM

Molecule: Onchocerca volvulus thioredoxin 1 (natural protein)
- Km of the reductase for the Trx, Trx-linked insulin disulfide reduction assay (NADPH consumption at A340) [1]: 1.1 µM
- Km of the reductase for the Trx, Trx-linked insulin disulfide reduction assay (NADPH consumption at A340) [6]: 1.6 µM

Molecule: COc1ccc([N+](=O)[O-])c(S(=O)(=O)c2ccc(Cl)cc2)n1 [TRi-1]
- IC50 (OvTrxR (isoform D) [4]): 0.012 µM
- IC50 (BmTrxR (isoform D) [5]): 0.013 µM

B1: BmTrxR (isoform D) (Brugia malayi) (protein)
chain: T3 sequence (A0A1I9G0T9 116-713)
- Km (purified protein): 70 ± 7.8 µM
- kcat (purified protein): 20 ± 0.95 s⁻¹
- kcat/Km (purified protein): 283000 M⁻¹ s⁻¹
